The source of these data is patent US20260108614A1, “IMMOBILIZED ENDOGLYCOSIDASE FUSION PROTEIN AND USE THEREOF” (GENEQUANTUM HEALTHCARE (SUZHOU) CO., LTD., priority 2022, published 2026).

The data set is described as follows: Isoelectric point. Type of data set: physicochemical. As to conditions: method not stated.

B1: Halo-Endo S2-His: endoglycosidase fusion protein: Halo tag, Endo S2 and His tag, SEQ ID NO: 1 (protein)
chain: MAEIGTGFPFDPHYVEVLGERMHYVDVGPRDGTPVLFLHGNPTSSYVWRNIIPHVAPTHRCIAPDLIGMGKSDKPDLGYFFDDHVRFMDAFIEALGLEEVVLVIHDWGSALGFHWAKRNPERVKGIAFMEFIRPIPTWDEWPEFARETFQAFRTTDVGRKLIIDQNVFIEGTLPMGVVRPLTEVEMDHYREPFLNPVDREPLWRFPNELPIAGEPANIVALVEEYMDWLHQSPVPKLLFWGTPGVLIPPAEAARLAKSLPNCKAVDIGPGLNLLQEDNPDLIGSEIARWLSTLEISGGGGGSGGGGSMDKHLLVKRTLGCVCAATLMGAALATHHDSLNTVKAEEKTVQTGKTDQQVGAKLVQEIREGKRGPLYAGYFRTWHDRASTGIDGKQQHPENTMAEVPKEVDILFVFHDHTASDSPFWSELKDSYVHKLHQQGTALVQTIGVNELNGRTGLSKDYPDTPEGNKALAAAIVKAFVTDRGVDGLDIDIEHEFTNKRTPEEDARALNVFKEIAQLIGKNGSDKSKLLIMDTTLSVENNPIFKGIAEDLDYLLRQYYGSQGGEAEVDTINSDWNQYQNYIDASQFMIGFSFFEESASKGNLWFDVNEYDPNNPEKGKDIEGTRAKKYAEWQPSTGGLKAGIFSYAIDRDGVAHVPSTYKNRTSTNLQRHEVDNISHTDYTVSRKLKTLMTEDKRYDVIDQKDIPDPALREQIIQQVGQYKGDLERYNKTLVLTGDKIQNLKGLEKLSKLQKLELRQLSNVKEITPELLPESMKKDAELVMVGMTGLEKLNLSGLNRQTLDGIDVNSITHLTSFDISHNSLDLSEKSEDRKLLMTLMEQVSNHQKITVKNTAFENQKPKGYYPQTYDTKEGHYDVDNAEHDILTDFVFGTVTKRNTFIGDEEAFAIYKEGAVDGRQYVSKDYTYEAFRKDYKGYKVHLTASNLGETVTSKVTATTDETYLVDVSDGEKVVHHMKLNIGSGAIMMENLAKGAKVIGTSGDFEQAKKIFDGEKSDRFFTWGQTNWIAFDLGEINLAKEWRLFNAETNTEIKTDSSLNVAKGRLQILKDTTIDLEKMDIKNRKEYLSNDENWTDVAQMDDAKAIFNSKLSNVLSRYWRFCVDGGASSYYPQYTELQILGQRLSNDVANTLKDHHHHHHHHHH
modifications: Halo-Endo S2-His
For the molecule B1, the isoelectric point was determined as 5.5.
